Data taken from paper PMC3248438, “Probing the SELEX Process with Next-Generation Sequencing”.

Target: Streptavidin (UniProt P22629 25-183)
Assay: SPR; kon 1.5e4 M-1 s-1, koff 2.2e-3 s-1; 1:1 Langmuir fit, chi2 0.535; 900 RU chip; Binding buffer 20 mM Tris, 140 mM NaCl, 5 mM MgCl2, 2 mM CaCl2, 2 mM KCl, 0.05% Tween 20, pH 7.4; SPR at 25 C, 30 ul/min; FLAA 1 h at room temperature
Conditions: protein: commercial; chain copies: 4

Sequence of Streptavidin (P22629 25-183): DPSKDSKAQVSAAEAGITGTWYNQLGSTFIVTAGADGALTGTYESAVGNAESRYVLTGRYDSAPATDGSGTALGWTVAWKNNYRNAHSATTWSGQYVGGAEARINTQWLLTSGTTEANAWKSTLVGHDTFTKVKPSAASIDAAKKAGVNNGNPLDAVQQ

In the case of ATCTCCGATTGCCCCACGACGCAGTGGTCGGAGTTACTTT (ssDNA) [R10#17], the Kd is reported as 140 nM.
